{"source": "paper PMC3436581", "target": "Cu^2+-catalyzed oxidized PrP(23–231) (mild condition) (mouse) (UniProt P04925)", "experiment": "SEC", "data": [{"substance": "Cu^2+-catalyzed oxidized PrP(23–231) (mild condition) (from UniProt P04925 23-231) (natural protein)", "values": [{"measurement": "percent of total protein in the tetramer band", "result": "< 5", "unit": "%"}, {"measurement": "stoichiometry N", "result": 4}]}]}
